In the RNAGym collection of RNA variant scans (doi:10.1073/pnas.2313332121):

B1: TPR t1 (parent)
chain: GACCAAUCUGCCCUCAGAGCUCGAGAACAUCUUCGGAUGCAGAGGAGGCAGGCUUCGGUGGCGCGAUAGCGCCAACGUCCUCAACCUCCAAUGCAUCCCACCACAUGAUGAUGCCUGAAGAGCCUUGGUUUUUUG

Variants of: B1
Test: polymerase ribozyme fitness, log enrichment relative to wild type (log ratio); higher = more active; in vitro selection for triplet polymerase activity
Summary of the method: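 Both subunits of a heterodimeric triplet polymerase ribozyme were given their own mutant library, built by PCR and transcribed. Each library was annealed with a biotinylated primer, the partner subunit and triplets, incubated frozen at −7 °C, and its extended constructs gel-excised, captured on streptavidin beads and amplified by RT-PCR, all in one round done in triplicate. Fitness is the logarithm of genotype enrichment relative to wild-type enrichment, with replicates averaged by inverse-variance weighting. That logarithm is base 2, and Illumina-sequenced genotypes needed ≥10 input reads and ≥1 read per output.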

| Variant | polymerase ribozyme fitness (log ratio) |
| --- | --- |
| C28G A29G G42U G44A A83U C124U | -7.08 |
| C28G A29C A95G C98U G107A U112A | -5.27 |
| A27U U133C | -2.05 |
| A27C G42U C104A C114A G128A | -7.58 |
| A27C G39A A41G | -4.08 |
| A27U U87G G122A | -3.02 |
| C28A A43G G51U A90G G110A | -4.93 |
| A27C G44U C64U | -4.14 |
| A27U A46U G61A C85U C94U | -3.53 |
| A26U G63A | -5.09 |
| A26U G63U | -3.98 |
| A27U C56G G117U C124G | -4.92 |
| A27C C82U U96G U125A U129G | -5.35 |
| A26U G60A U130C | -2.93 |
| A27G G45A G58A G61A A91G | -5.18 |
| A26U C82U | -3.73 |
| A27G A29U C73U U125A | -3.73 |
| A27U A37C U59C | -3.36 |
| A26U C85U C123A | -3.83 |
| C28G A50G G69U | -0.817 |
| A27U C64U | -2.76 |

| Variant | polymerase ribozyme fitness (log ratio) |
| --- | --- |
| A27C U112C | -1.2 |
| C28A C49U | -4.87 |
| A26U C88A A119U | -4.48 |
| A27C U55C C70U U129G | -4.99 |
| C28A G39U U54C | -4.55 |
| A27U U59A | -3.1 |
| A26U G52U | -4.03 |
| C28A A50C C73A G113A | -4.23 |
| C28G C40G G48U C53U | -3.75 |
| C28G A84U A103U G110C | -4.22 |
| A27U A41U | -4.42 |
| A27G C40G G107C C115U G120U U131A | -5.69 |
| A27G A90U U116C | -6.7 |
| A27U C72A | -2.61 |
| C28G A43G G45A C79A C115U G117U | -5.19 |
| A27U G57U C73G U78C U96A A111U | -5.99 |
| C28A G39U C64U C104A A119G | -5.82 |
| A27C A29G C62A | -5.73 |
| C28A G60A C97U U112A | -2.26 |
| A27C A90U | -5.3 |
| C28A G60U A74U A83C G113U | -6.48 |

| Variant | polymerase ribozyme fitness (log ratio) |
| --- | --- |
| A26U U38G A43U C73G C76U A111G | -7.42 |
| A27G A100U G120U | -3.21 |
| A26U G51A U54A G69C G117C | -7.56 |
| A27U C72U A83U | -3.67 |
| C28A A74C G117U | -7.34 |
| A27U G35A C49U C88A A90G C98A U109A | -4.79 |
| A27C A29U C56U U106A G122A C123G | -1.35 |
| A27G A29G G45A C56G C73A A75G C104A G107A G117U | -6.73 |
| A27U C40G C82G | -5.92 |
| A27U G48C C124G U126C G128A | -4.06 |
| A27G C64U G77U C85A U130C | -4.3 |
| A27C G45C | -4.29 |
| A27U C56A C70U U96A | -5.71 |
| A27U G117U | -4.76 |
| A27U G61A U87G | -2.42 |
| A26U G48C C86G | -3.65 |
| A26U G48C A50U C53U | -4.37 |
| C28A G63C | -4.91 |
| C28A C72U A100C G120A | -4.36 |
| A27C A46C C56G | -4.61 |
| A27U G61C C97U U131A | -4.99 |

| Variant | polymerase ribozyme fitness (log ratio) |
| --- | --- |
| A27C G110A | -4.22 |
| A27C C94A | -3.32 |
| A27C C94G | -3.57 |
| A27C C72G U81C | -4.5 |
| A27G C34U C72U C86A U112A U133C | -2.87 |
| A27U C76U G77C | -3.99 |
| C28A G61U | -3.73 |
| A26U G39A G120C C124A G135A | -3.54 |
| A27U G63A | -4.36 |
| A27U G63U | -5.66 |
| A27U G63C | -3.59 |
| A26U G71A C72U A90C U106A | -5.08 |
| A26U G47A C86G | -2.67 |
| A27C U78C | -3.31 |
| A27U G47U C86U G110C | -6.45 |
| A26U C123A | -2.9 |
| A27U C40U C76G | -4.54 |
| A27U C76A C79A | -4.71 |
| A26U U59G C62U | -4.33 |
| A27G G120A | -1.1 |
| A27G G120C | -0.195 |
